Experimental findings from paper PMC6733924 are described below.

Assay [1] concerns the target GST fused to the TRPM8 C-terminal tail. The assay is described as follows: pull-down; as a4, with 1, 10 or 100 nM testosterone during incubation of in vitro translated AR with the N- or C-terminal tail of TRPM8.
Assay [2] has as its target GST fused to the TRPM8 N-terminal tail. The assay is described as follows: pull-down; purified GST-fusion proteins of the TRPM8 tails on beads incubated overnight at 4 °C with in vitro translated AR proteins, no testosterone; fluorescence imaging or anti-AR immunoblot; normalised to the input.

Sequence of in vitro translated AR (P10275 whole entry, the tested form may be a part): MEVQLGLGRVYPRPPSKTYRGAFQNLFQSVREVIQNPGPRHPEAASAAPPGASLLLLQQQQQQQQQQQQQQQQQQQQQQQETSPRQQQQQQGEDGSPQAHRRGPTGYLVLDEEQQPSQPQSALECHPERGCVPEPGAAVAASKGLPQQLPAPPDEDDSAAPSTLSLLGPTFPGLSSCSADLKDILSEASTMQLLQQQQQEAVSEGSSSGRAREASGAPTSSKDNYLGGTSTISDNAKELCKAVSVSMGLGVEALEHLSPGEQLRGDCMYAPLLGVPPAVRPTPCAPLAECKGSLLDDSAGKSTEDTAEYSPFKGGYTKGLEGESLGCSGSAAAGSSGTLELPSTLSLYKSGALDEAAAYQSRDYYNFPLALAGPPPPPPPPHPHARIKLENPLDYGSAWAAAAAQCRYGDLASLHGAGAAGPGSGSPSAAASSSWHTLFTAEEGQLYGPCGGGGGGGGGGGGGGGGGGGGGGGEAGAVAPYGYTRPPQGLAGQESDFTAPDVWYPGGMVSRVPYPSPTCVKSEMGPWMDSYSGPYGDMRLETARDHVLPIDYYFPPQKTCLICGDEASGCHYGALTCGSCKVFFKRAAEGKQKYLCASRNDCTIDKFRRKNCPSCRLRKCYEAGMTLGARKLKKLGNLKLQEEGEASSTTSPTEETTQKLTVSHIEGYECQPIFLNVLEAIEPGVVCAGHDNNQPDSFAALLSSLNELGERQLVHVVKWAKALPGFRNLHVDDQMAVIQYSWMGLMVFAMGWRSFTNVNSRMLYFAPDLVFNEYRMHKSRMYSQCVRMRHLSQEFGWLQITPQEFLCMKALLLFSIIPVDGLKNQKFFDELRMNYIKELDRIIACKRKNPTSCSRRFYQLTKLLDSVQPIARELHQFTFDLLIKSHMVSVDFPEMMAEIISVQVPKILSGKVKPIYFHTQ

Take “in vitro translated AR (from UniProt P10275 1-920) (natural protein)”: in assay [1], the percent decrease of pulled-down AR with 1 nM testosterone is 43%, the percent decrease of pulled-down AR with 10 nM testosterone stood at 65.6% and the percent decrease of pulled-down AR with 100 nM testosterone is 93.1%. Further, the percent stronger pull-down by M8-Nt than by M8-Ct in assay [2] turned out to be 48%.
